# In patent publication US9273364B2 (Kyoto University, priority 2010, dated 2016):
# B1: Fox2 protein: highly purified recombinant Flag-Fox2 added to RNAs before splicing reaction (protein, UniProt O43251 1-390, looked up)
# RNA binding protein fox-1 …: MQNEPLTPGYHGFPARDSQGNQEPTTTPDAMVQPFTTIPFPPPPQNGIPTEYGVPHTQDYAGQTGEHNLTLYGSTQAHGEQSSNSPSTQNGSLTTEGGAQTDGQQSQTQSSENSESKSTPKRLHVSNIPFRFRDPDLRQMFGQFGKILDVEIIFNERGSKGFGFVTFENSADADRAREKLHGTVVEGRKIEVNNATARVMTNKKMVTPYANGWKLSPVVGAVYGPELYAASSFQADVSLGNDAAVPLSGRGGINTYIPLISLPLVPGFPYPTAATTAAAFRGAHLRGRGRTVYGAVRAVPPTAIPAYPGVVYQDGFYGADLYGGYAAYRYAQPATATAATAAAAAAAAYSDGYGRVYTADPYHALAPAASYGVGAVASLYRGGYSRFAPY
# modifications: Flag tag
# B2: ESRP1 protein: highly purified recombinant Flag-ESRP1 added to RNAs before splicing reaction (protein, UniProt Q6NXG1 1-681, looked up)
# Epithelial splicing …: MTASPDYLVVLFGITAGATGAKLGSDEKELILLFWKVVDLANKKVGQLHEVLVRPDQLELTEDCKEETKIDVESLSSASQLDQALRQFNQSVSNELNIGVGTSFCLCTDGQLHVRQILHPEASKKNVLLPECFYSFFDLRKEFKKCCPGSPDIDKLDVATMTEYLNFEKSSSVSRYGASQVEDMGNIILAMISEPYNHRFSDPERVNYKFESGTCSKMELIDDNTVVRARGLPWQSSDQDIARFFKGLNIAKGGAALCLNAQGRRNGEALVRFVSEEHRDLALQRHKHHMGTRYIEVYKATGEDFLKIAGGTSNEVAQFLSKENQVIVRMRGLPFTATAEEVVAFFGQHCPITGGKEGILFVTYPDGRPTGDAFVLFACEEYAQNALRKHKDLLGKRYIELFRSTAAEVQQVLNRFSSAPLIPLPTPPIIPVLPQQFVPPTNVRDCIRLRGLPYAATIEDILDFLGEFATDIRTHGVHMVLNHQGRPSGDAFIQMKSADRAFMAAQKCHKKNMKDRYVEVFQCSAEEMNFVLMGGTLNRNGLSPPPCKLPCLSPPSYTFPAPAAVIPTEAAIYQPSVILNPRALQPSTAYYPAGTQLFMNYTAYYPSPPGSPNSLGYFPTAANLSGVPPQPGTVVRMQGLAYNTGVKEILNFFQGYQYATEDGLIHTNDQARTLPKEWVCI
# modifications: Flag tag
# What was measured:
# [1] = tested on: mouse FGFR2 exon 8 RNA probe (U1 snRNA binding); test: In vitro exon-recognition assay, exon 8 probe; type: biochemical; settings: HeLa nuclear extract, UV crosslinking
# Protocol: (§1) A mutated DNA template of 3′ ss in intron 8 and 5′ ss in intron 9 was prepared from mutated reporter vectors as shown in FIG. 3A. The RNA substrates were labeled with ^32P by in vitro T7 transcription. In vitro splicing reaction and UV cross linking were performed under the conditions described by Sawa [Sawa H, Shimura Y (1992) Genes Dev 6: 244-254.]. To identify the shifted bands by UV cross linking, pre-heated cDNA oligo (10 microgram/mL) for U1 (5′-[…]-3′/SEQ ID NO:38) or U2 (5′-[…]-3′/SEQ ID NO:39) was added to the RNAs after UV cross linking, and the U1 or U2 cDNA oligo/RNAs mixture were digested with 50 U/mL of RNase H at 30 degrees C. for 10 min. In FIG. 5C, highly purified Flag-Fox2 and Flag-ESRP1 were added to RNAs and incubated at room temperature for 5 min before splicing reaction to examine their inhibitory or activating effects on exon recognition of U1 snRNA or U2 snRNA. After these reactions, RNAs were subjected to denaturing PAGE analysis and autoradiography.
# (§2) Next, the present inventors tested whether Fox and/or ESRP cause switching from exon 9 to exon 8 through interruption of exon 9 recognition. The present inventors examined this under the in vitro splicing conditions using ^32P-labeled RNA probe of exon 9 with introns containing UGCAUG and ISE/ISS-3 sites (FIG. 10C, top panel) and the exon 8 RNA probe of same stretches. […]
# [2] = tested on: mouse FGFR2 exon 9 RNA probe (U1 and U2 snRNA binding); test: In vitro exon-recognition assay, exon 9 probe; type: biochemical; settings: HeLa nuclear extract, UV crosslinking
# Protocol: as §1, §2
molecule,measurement,setting,value
B1,suppressive or activating effect on exon recognition,[1],not obvious
same,shifted bands by U1 and U2 snRNA,[2],decreased
B2,suppressive or activating effect on exon recognition,[1],not obvious
same,shifted bands by U1 and U2 snRNA,[2],decreased
